Patent publication US20240059789A1 (Janssen / Centocor, published 2024)

Assays:
[1] = molecular target: T1, Human PSMA on prostate cancer cell lines (C4-2B, 22RV1) (human, UniProt Q04609 1-750); test: cell-based or functional assay
[2] = molecular target: T1, Human PSMA on prostate cancer cell …; test: cell-based or functional assay; remark: listed apart in the source

T1 sequence (Q04609 whole entry): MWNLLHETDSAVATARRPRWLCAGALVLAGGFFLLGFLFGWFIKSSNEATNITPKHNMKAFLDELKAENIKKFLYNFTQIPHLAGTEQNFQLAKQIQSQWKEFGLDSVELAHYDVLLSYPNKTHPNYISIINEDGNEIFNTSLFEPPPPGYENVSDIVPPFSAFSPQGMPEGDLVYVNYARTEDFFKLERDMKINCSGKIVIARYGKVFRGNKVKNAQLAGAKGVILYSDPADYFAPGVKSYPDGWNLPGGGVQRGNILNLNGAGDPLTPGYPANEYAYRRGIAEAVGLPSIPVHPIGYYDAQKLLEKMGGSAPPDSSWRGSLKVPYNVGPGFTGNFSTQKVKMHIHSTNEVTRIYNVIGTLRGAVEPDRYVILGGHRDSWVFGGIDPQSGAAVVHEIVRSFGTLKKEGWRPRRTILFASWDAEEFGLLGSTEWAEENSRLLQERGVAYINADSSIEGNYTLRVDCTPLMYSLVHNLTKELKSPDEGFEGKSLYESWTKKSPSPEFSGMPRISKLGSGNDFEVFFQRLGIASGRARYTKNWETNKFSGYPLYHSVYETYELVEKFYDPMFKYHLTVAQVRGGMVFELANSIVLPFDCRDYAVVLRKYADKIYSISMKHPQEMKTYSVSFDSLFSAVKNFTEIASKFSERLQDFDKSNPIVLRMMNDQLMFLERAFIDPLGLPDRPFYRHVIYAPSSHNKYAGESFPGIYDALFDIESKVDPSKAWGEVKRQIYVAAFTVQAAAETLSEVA

B1: PS3B1357 (bispecific antibody, human IgG1, lambda, L234A L235A)
heavy 1: QVQLQQSGPGLVKPSQTLSLTCAISGDSVFNNNAAWSWIRQSPSRGLEWLGRTYYRSKWLYDYAVSVKSRITINPDTSKNQFSLQLNSVTPEDTAVYYCARGYSSSFDYWGQGTLVTVSSASTKGPSVFPLAPSSKSTSGGTAALGCLVKDYFPEPVTVSWNSGALTSGVHTFPAVLQSSGLYSLSSVVTVPSSSLGTQTYICNVNHKPSNTKVDKKVEPKSCDKTHTCPPCPAPEAAGGPSVFLFPPKPKDTLMISRTPEVTCVVVSVSHEDPEVKFNWYVDGVEVHNAKTKPREEQYNSTYRVVSVLTVLHQDWLNGKEYKCKVSNKALPAPIEKTISKAKGQPREPQVYTLPPSREEMTKNQVSLTCLVKGFYPSDIAVEWESNGQPENNYKTTPPVLDSDGSFLLYSKLTVDKSRWQQGNVFSCSVMHEALHNHYTQKSLSLSPGK
light 1: QSALTQPASVSGSPGQSITISCTGTSSNIGTYKFVSWYQQHPGKAPKVMIYEVSKRPSGVSNRFSGSKSGNTASLTISGLQAEDEADYYCVSYAGSGTLLFGGGTKLTVLGQPKAAPSVTLFPPSSEELQANKATLVCLISDFYPGAVTVAWKADSSPVKAGVETTTPSKQSNNKYAASSYLSLTPEQWKSHRSYSCQVTHEGSTVEKTVAPTECS
heavy 2: EVQLVESGGGLVQPGGSLRLSCAASGFTFSSYAMSWVRQAPGKGLEWVSAISGGIGSTYYADSVKGRFTISRDNSKNTLWLQMNSLRAEDTAVYYCAKDGVGATPYYFDYWGQGTLVTVSSASTKGPSVFPLAPSSKSTSGGTAALGCLVKDYFPEPVTVSWNSGALTSGVHTFPAVLQSSGLYSLSSVVTVPSSSLGTQTYICNVNHKPSNTKVDKKVEPKSCDKTHTCPPCPAPEAAGGPSVFLFPPKPKDTLMISRTPEVTCVVVSVSHEDPEVKFNWYVDGVEVHNAKTKPREEQYNSTYRVVSVLTVLHQDWLNGKEYKCKVSNKALPAPIEKTISKAKGQPREPQVYTLPPSREEMTKNQVSLTCLVKGFYPSDIAVEWESNGQPENNYKTTPPVLDSDGSFFLYSRLTVDKSRWQQGNVFSCSVMHEALHNHYTQKSLSLSPGK
light 2: QSVLTQPPSVSAAPGQKVTISCSGSSSNIGINYVSWYQQLPGTAPKLLIYDNNKRPSGIPDRFSGSKSGTSATLGITGLQTGDEADYYCGTWDSSLSAVVFGGGTKLTVLGQPKAAPSVTLFPPSSEELQANKATLVCLISDFYPGAVTVAWKADSSPVKAGVETTTPSKQSNNKYAASSYLSLTPEQWKSHRSYSCQVTHEGSTVEKTVAPTECS
% cytolysis at 120 hours (C4-2B, xCelligence, donor #1) at 80 pM [1]: 100%
% cytolysis at 120 hours (C4-2B, xCelligence, donor #1) at 0.4 nM [1]: 100%
% cytolysis at 120 hours (C4-2B, xCelligence, donor #1) at 2 nM [1]: 100%
% cytolysis at 120 hours (C4-2B, xCelligence, donor #1) at 10 nM [1]: 100%
% cytolysis at 120 hours (C4-2B, xCelligence, donor #1) at 50 nM [1]: 100%
% cytolysis at 120 hours (C4-2B, xCelligence, donor #2) at 80 pM [1]: 100%
% cytolysis at 120 hours (C4-2B, xCelligence, donor #2) at 0.4 nM [1]: 100%
% cytolysis at 120 hours (C4-2B, xCelligence, donor #2) at 2 nM [1]: 100%
% cytolysis at 120 hours (C4-2B, xCelligence, donor #2) at 10 nM [1]: 100%
% cytolysis at 120 hours (C4-2B, xCelligence, donor #2) at 50 nM [1]: 100%
% cytolysis at 120 hours (C4-2B, xCelligence, donor #3) at 80 pM [1]: 100%
% cytolysis at 120 hours (C4-2B, xCelligence, donor #3) at 0.4 nM [1]: 100%
% cytolysis at 120 hours (C4-2B, xCelligence, donor #3) at 2 nM [1]: 100%
% cytolysis at 120 hours (C4-2B, xCelligence, donor #3) at 10 nM [1]: 100%
% cytolysis at 120 hours (C4-2B, xCelligence, donor #3) at 50 nM [1]: 100%
Cytotoxicity (C4-2B cells, 3:1 E:T ratio, 5 Day) at 0.3 nM [2]: 96%
Cytotoxicity (C4-2B cells, 3:1 E:T ratio, 5 Day) at 1.1 nM [2]: 96%
Cytotoxicity (C4-2B cells, 3:1 E:T ratio, 5 Day) at 3.3 nM [2]: 95%
Cytotoxicity (C4-2B cells, 3:1 E:T ratio, 5 Day) at 10 nM [2]: 96%
Cytotoxicity (C4-2B cells, 3:1 E:T ratio, 5 Day) at 30 nM [2]: 91%

B2: PS3B1355 (bispecific antibody, human IgG1, lambda, L234A L235A)
heavy 1: QVQLQQSGPRLVRPSQTLSLTCAISGDSVFNNNAAWSWIRQSPSRGLEWLGRTYYRSKWLYDYAVSVKSRITVNPDTSRNQFTLQLNSVTPEDTALYYCARGYSSSFDYWGQGTLVTVSSASTKGPSVFPLAPSSKSTSGGTAALGCLVKDYFPEPVTVSWNSGALTSGVHTFPAVLQSSGLYSLSSVVTVPSSSLGTQTYICNVNHKPSNTKVDKKVEPKSCDKTHTCPPCPAPEAAGGPSVFLFPPKPKDTLMISRTPEVTCVVVSVSHEDPEVKFNWYVDGVEVHNAKTKPREEQYNSTYRVVSVLTVLHQDWLNGKEYKCKVSNKALPAPIEKTISKAKGQPREPQVYTLPPSREEMTKNQVSLTCLVKGFYPSDIAVEWESNGQPENNYKTTPPVLDSDGSFLLYSKLTVDKSRWQQGNVFSCSVMHEALHNHYTQKSLSLSPGK
light 1: QSALTQPASVSGSPGQSITISCTGTSSNIGTYKFVSWYQQHPDKAPKVLLYEVSKRPSGVSSRFSGSKSGNTASLTISGLQAEDQADYHCVSYAGSGTLLFGGGTKLTVLGQPKAAPSVTLFPPSSEELQANKATLVCLISDFYPGAVTVAWKADSSPVKAGVETTTPSKQSNNKYAASSYLSLTPEQWKSHRSYSCQVTHEGSTVEKTVAPTECS
heavy 2: EVQLVESGGGLVQPGGSLRLSCAASGFTFSSYAMSWVRQAPGKGLEWVSAISGGSGSTYYADSVKGRFTISRDNSKNTLYLQMNSLRAEDSAVYYCAKDGVGATPYYFDYWGQGTLVTVSSASTKGPSVFPLAPSSKSTSGGTAALGCLVKDYFPEPVTVSWNSGALTSGVHTFPAVLQSSGLYSLSSVVTVPSSSLGTQTYICNVNHKPSNTKVDKKVEPKSCDKTHTCPPCPAPEAAGGPSVFLFPPKPKDTLMISRTPEVTCVVVSVSHEDPEVKFNWYVDGVEVHNAKTKPREEQYNSTYRVVSVLTVLHQDWLNGKEYKCKVSNKALPAPIEKTISKAKGQPREPQVYTLPPSREEMTKNQVSLTCLVKGFYPSDIAVEWESNGQPENNYKTTPPVLDSDGSFFLYSRLTVDKSRWQQGNVFSCSVMHEALHNHYTQKSLSLSPGK
light 2: QSVLTQPPSVSAAPGQKVTISCSGSSSNIGINYVSWYQQLPGTAPKLLIYDNNKRPSGIPDRFSGSKSGTSATLGITGLQTGDEADYYCGTWDSSLSAVVFGGGTKLTVLGQPKAAPSVTLFPPSSEELQANKATLVCLISDFYPGAVTVAWKADSSPVKAGVETTTPSKQSNNKYAASSYLSLTPEQWKSHRSYSCQVTHEGSTVEKTVAPTECS
Cytotoxicity (C4-2B cells, 3:1 E:T ratio, 5 Day) at 0.3 nM [2]: 92%
Cytotoxicity (C4-2B cells, 3:1 E:T ratio, 5 Day) at 1.1 nM [2]: 97%
Cytotoxicity (C4-2B cells, 3:1 E:T ratio, 5 Day) at 3.3 nM [2]: 96%
Cytotoxicity (C4-2B cells, 3:1 E:T ratio, 5 Day) at 10 nM [2]: 95%
Cytotoxicity (C4-2B cells, 3:1 E:T ratio, 5 Day) at 30 nM [2]: 94%

B3: PS3B1358 (bispecific antibody, human IgG1, lambda, L234A L235A)
heavy 1: QVQLQQSGPGLVKPSQTLSLTCAISGDSVFNNNAAWSWIRQSPSRGLEWLGRTYYRSKWLYDYAVSVKSRITINPDTSKNQFSLQLNSVTPEDTAVYYCARGYSSSFDYWGQGTLVTVSSASTKGPSVFPLAPSSKSTSGGTAALGCLVKDYFPEPVTVSWNSGALTSGVHTFPAVLQSSGLYSLSSVVTVPSSSLGTQTYICNVNHKPSNTKVDKKVEPKSCDKTHTCPPCPAPEAAGGPSVFLFPPKPKDTLMISRTPEVTCVVVSVSHEDPEVKFNWYVDGVEVHNAKTKPREEQYNSTYRVVSVLTVLHQDWLNGKEYKCKVSNKALPAPIEKTISKAKGQPREPQVYTLPPSREEMTKNQVSLTCLVKGFYPSDIAVEWESNGQPENNYKTTPPVLDSDGSFLLYSKLTVDKSRWQQGNVFSCSVMHEALHNHYTQKSLSLSPGK
light 1: QSALTQPASVSGSPGQSITISCTGTSSNIGTYKFVSWYQQHPGKAPKVMIYEVSKRPSGVSNRFSGSKSGNTASLTISGLQAEDEADYYCVSYAGSGTLLFGGGTKLTVLGQPKAAPSVTLFPPSSEELQANKATLVCLISDFYPGAVTVAWKADSSPVKAGVETTTPSKQSNNKYAASSYLSLTPEQWKSHRSYSCQVTHEGSTVEKTVAPTECS
heavy 2: EVQLVESGGGLVQPGGSLRLSCAASGFTFSSYAMSWVRQAPGKGLEWVSAISGGSGSTYYADSVKGRFTISRDNSKNTLYLQMNSLRAEDSAVYYCAKDGVGATPYYFDYWGQGTLVTVSSASTKGPSVFPLAPSSKSTSGGTAALGCLVKDYFPEPVTVSWNSGALTSGVHTFPAVLQSSGLYSLSSVVTVPSSSLGTQTYICNVNHKPSNTKVDKKVEPKSCDKTHTCPPCPAPEAAGGPSVFLFPPKPKDTLMISRTPEVTCVVVSVSHEDPEVKFNWYVDGVEVHNAKTKPREEQYNSTYRVVSVLTVLHQDWLNGKEYKCKVSNKALPAPIEKTISKAKGQPREPQVYTLPPSREEMTKNQVSLTCLVKGFYPSDIAVEWESNGQPENNYKTTPPVLDSDGSFFLYSRLTVDKSRWQQGNVFSCSVMHEALHNHYTQKSLSLSPGK
light 2: QSVLTQPPSVSAAPGQKVTISCSGSSSNIGINYVSWYQQLPGTAPKLLIYDNNKRPSGIPDRFSGSKSGTSATLGITGLQTGDEADYYCGTWDSSLSAVVFGGGTKLTVLGQPKAAPSVTLFPPSSEELQANKATLVCLISDFYPGAVTVAWKADSSPVKAGVETTTPSKQSNNKYAASSYLSLTPEQWKSHRSYSCQVTHEGSTVEKTVAPTECS
Cytotoxicity (C4-2B cells, 3:1 E:T ratio, 5 Day) at 0.3 nM [2]: 68%
Cytotoxicity (C4-2B cells, 3:1 E:T ratio, 5 Day) at 1.1 nM [2]: 90%
Cytotoxicity (C4-2B cells, 3:1 E:T ratio, 5 Day) at 3.3 nM [2]: 93%
Cytotoxicity (C4-2B cells, 3:1 E:T ratio, 5 Day) at 10 nM [2]: 94%
Cytotoxicity (C4-2B cells, 3:1 E:T ratio, 5 Day) at 30 nM [2]: 88%
